According to patent US8309140B2, “Effect of porcine sheath proteins on the regeneration activity of periodontal ligament” (priority 2005, dated 2012):
“Also recorded” adds a separate entry of the source.

B1: 17 kDa sheath protein: Porcine 17 kDa sheath protein, N-terminal cleavage product of sheathlin containing 170 amino acids (protein, listed as Sus scrofa)
chain: VPAFPRQPGTPGVASLSLETMRQLGSLQGLNMLSQYSRFGFGKSFNSLWMHGLLPPHSSFQWMRPREHETQQYEYSLPVHPPPLPSQPSLQPQQPGQKPFLQPTVVTSIQNPVQKGVPQPPIYQGHPPLQQVEGPMVQQQVAPSEKPPEAELPGLDFADPQDPSMFPIAR
modifications: porcine sheath protein
notes: Porcine 17 kDa sheath protein, N-terminal cleavage product of sheathlin containing 170 amino acids
B2: 13 kDa sheath protein: sheath protein containing the 99 amino acids extending from M32 to Q130 (protein)
chain: MLSQYSRFGFGKSFNSLWMHGLLPPHSSFQWMRPREHETQQYEYSLPVHPPPLPSQPSLQPQQPGQKPFLQPTVVTSIQNPVQKGVPQPPIYQGHPPLQ
B3: 15 kDa sheath protein: N-terminal cleavage product of sheathlin containing 130 amino acids, lacks C-terminal 40 amino acids of 17 kDa sheath protein (protein)
chain: VPAFPRQPGTPGVASLSLETMRQLGSLQGLNMLSQYSRFGFGKSFNSLWMHGLLPPHSSFQWMRPREHETQQYEYSLPVHPPPLPSQPSLQPQQPGQKPFLQPTVVTSIQNPVQKGVPQPPIYQGHPPLQ

Assays:
[1] = test system: human periodontal ligament (HPDL) cells; assay: ALP inducing activity of HPDL cells on cell culture system; assay type: cell-based; conditions: for ALP activity of HPDL cells (porcine sheath proteins and synthetic peptides): 50 μg/ml protein or peptide, TGF-β1 50 ng/ml, BMP-2 500 ng/ml, 10 nM 1α-25dihydroxy-Vitamin D3, 96 h
Source text: Human periodontal ligament (HPDL) cells were obtained according to the method of Somerman et al., (1988) from healthy premolars which were extracted from the patients for orthodontic reasons. The cells were precultured for 4-6 passages with a-MEM medium to establish the primary cell line. The cells were maintained in the alpha modification of Eagle's medium (α-MEM; Life Technologies, Grand Island, N.Y., USA) containing 10% fetal bovine serum (FBS; Asahi Technoglass, Chiba, Japan) and 1% antibiotics (100 U/ml of Penicillin-G and 100 μg/ml of Streptomycin sulfate; Gibco BRL, Grand Island, N.Y., USA) at 37° C. in a humidified 5% CO2 atmosphere. The ST2 cells (Riken Cell Bank, Tsukuba, Japan), an osteoblast-like mouse bone marrow stromal cell line, were cultured under the same conditions.
HPDL cells were distributed in 96-well plates at a density of approximately 5×10^5 cells per a well and incubated for 24 h. The growth medium was then changed to contain 10 nM of 1α-25dihydroxy-Vitamin D3 (CALBIOCHEM, La Jolla, Calif.) and 50 μg/ml (final concentration) of fractionated enamel protein samples or synthesized peptides dissolved in ultrapure water. After 96 additional hours of incubation, the cells were washed once with PBS, and ALP activity was determined after a 10 min incubation at 37° C. in 10 mM p-nitrophenylphosphate (substrate) in 100 mM 2-amino-2-methyl-1,3-propanediol-HCl buffer (pH 10.0) containing 5 mM MgCl2. After adding 0.2 M NaOH, which stopped the reaction, the absorbance at 405 nm was read on a plate reader.
HPDL cells of approximately 5×10^5 cells per well were distributed in 96-well plates and incubated for 24 h. The growth medium was then changed to contain 10 nM of 1α-25dihydroxy-Vitamin D3 and 50 μg/ml (final concentration) of purified sheath protein or synthesized peptide. After 96 additional hours of incubation, ALP activity was determined using p-nitrophenylphosphate as a substrate.
The bioactivities of these synthetic peptides were tested their cytodifferentiation activity of HPDL cells and ST2 cells by determination of increasing ALP inducing activity on cell culture system. When these peptides applied in cell culture system, the concentration of their peptides was employed around 1 ng/ml. In the case of TGF-1, the concentration was 10 ng/ml.
Normal human periodontal ligament fibroblasts were maintained in an α-minimal essential medium (α-MEM) containing 10% fetal bovine serum, either with or without 10 nM 1α-25dihydroxy-vitamin D3 and 1% antibiotics (100 U/mL of penicillin G and 100 μg/mL of streptomycin sulfate) at 37° C. in a humidified atmosphere of air containing 5% CO2. Another cell line, ST2 cells, was obtained from an osteoblast-like mouse bone marrow stromal cell line. These cells were cultured in the same conditions as those described above.
The ALP inducing activities of synthetic peptides using the cell culture of HPDL cells and ST2 cells were examined. The HPDL cells were distributed in 96-well plates at a density of approximately 5×10^5 cells per well and incubated for 24 h. The medium was then changed to α-MEM containing 10 nM of 1α-25dihydroxy-vitamin D3 and either synthetic peptides or growth factors dissolved in ultra-pure water. After 96 h of incubation, the cells were washed once with phosphate-buffered saline, and 10 mM ρ-nitrophenylphosphate in 100 mM 2-amino-2-methel-1,3-propanediol-HCl buffer (pH 10.0) containing 5 mM MgCl2 was added. The ALP activity was determined after 10 min incubation at 37° C. and the absorbance at 405 nm was read using a plate reader, after adding 0.2 M NaOH to stop the reaction. […] When the synthetic peptides were applied in the cell culture system, their final concentrations were 25 or 50 μg/mL. A TGF-β1 receptor inhibitor (SB431542, 10 μM) was applied to the HPDL cell culture system to examine their influence relative to the ALP inducing activity of the synthetic peptides.

[2] = test system: HPDL cells; assay: Mineralization activity of HPDL cells (alizarin red S staining, calcium content); assay type: cell-based, human; conditions: 30 days culture; 1 μg/ml of samples; differentiation medium
Protocol: (§1) The HPDL cells were plated in 24-well plates at an initial density of 1×10^5 cells/well. After 24 h of incubation, the medium was replaced with growth medium containing 50 μM ascorbic acid, 10 mM β-glycerophosphate, and 10 nM 1α,25-dihydroxyvitamin D3 (differentiation medium) and 1 μg/ml of samples. The medium was changed every 72 h. The cells were maintained for 30 days and then the medium was discarded.
The compartments of cells were fixed in 100% methanol, stained with alizarin red S for 10 min, then washed with ultrapure water and photographed to examine the biomineralization activity. The staining solution was 1% alizarin red S (sodium alizarin sulfonate) (Sigma) dissolved in ultrapure water and adjusted to pH 6.4 with 0.1N ammonium hydroxide.
For measuring the calcium content, the compartments of cells were dissolved by 0.5N hydrochloric acid. The resulting solution was measured by a Calcium C-test kit and protocol (Wako Pure Chemical Industries Ltd, Osaka, Japan). The absorbance at 570 nm was read on a plate reader.
as §1, with “h and the” for “h. The”, “days. The biomineralization activity was examined by staining with alizarin red S” for “days”, “measuring calcium content.” for “then the medium was discarded.”
The HPDL cells were plated in six-well plates at an initial density of 1×10^5 cells per well. […]
For Alizarin Red S staining, the compartments of 28 d cultured cells were fixed in 100% methanol, stained with Alizarin Red S for 10 min, then washed with ultra-pure water and photographed. […] The resulting solution was measured using a Calcium C-test kit and protocol. The absorbance at 570 nm was read with a plate reader. […]

[3] = test system: buccal dehiscence type bone defects created along the roots of the canine mandibular premolars; assay: Cementum regeneration (CR) activity, eight-week histological analysis on buccal dehiscence model of dogs; assay type: in vivo, beagle dogs; conditions: for thickness of regenerated cementum: eight weeks following application, measured at 3 points (apical, middle, coronal), beagle dogs; for CR (cementum regeneration) activity: histological analysis eight weeks after application, buccal dehiscence model of dogs
Protocol: Approximately 2-year-old male beagle dogs (approximate 15 kg) were used to detect the CR activities after the applications of several enamel protein samples. They had intact dentition and a healthy periodontium. The surgical preparation of buccal dehiscence type bone defects was carried out according to the modified method of Hammarström (1997) under general anesthesia induced and maintained by an endotracheal tube with 1.5-2.0% of halothane (Takeda Yakuhin Co. LTD, Osaka, Japan) in 100% oxygen, after premedicated with intramuscular injection of the mixture of Ketamine HCl (9.8 mg/kg: Sankyo Co. LTD, Tokyo, Japan) and Xylazine HCl (0.7 mg/kg: Bayer Co. LTD, Tokyo, Japan).
Contralateral buccal mucoperiosteal flaps were raised after an intracrevicular incision extending from the first mandibular premolar to the first mandibular molar. After the removing the buccal alveolar bone plate covering the mesial root of the second premolars, the exposed periodontal ligament and cementum of these areas were completely removed by means of a dental bur. At the apical end of the defect, a notch was created to identify the apical extension of the defect, when histological analyses. The distance between the cervical margin and the apical end of the defect was standardized at about 5 mm. The exposed root dentin surfaces were conditioned for 2 min with cotton pellets soaked in a 19% EDTA solution, and then carefully rinsed with sterile saline. Then 50 μg of each enamel protein sample in 100 μl of cold sterile distilled water was applied over the entire buccal surface area of the exposed roots. Finally, the mucoperiosteal flaps were repositioned to their level prior to surgery and sutured. Distilled water was used as a negative control and EMDOGAIN® (BIORA AB, Malmö, Sweden) served as a positive control.
After 8 weeks the dogs were terminated by anesthetization with sodium pentobarbital. Their heads were fixed by perfusion with 0.1 M sodium cacodylate buffer (pH 7.4) containing 4% paraformaldehyde and 1% glutaraldehyde. Tissue blocks, which included teeth, bone, and tissue were dissected and demineralized in 10% formic acid containing 0.06 M sodium citrate and 0.1 M citric acid. All specimens were dehydrated using a graded series of alcohols and then embedded in paraffin. Serial sections (5 μm thick) were made and stained with hematoxylin/eosin for examination by light microscopy.
The length and thickness of cementums regenerated after application of fractionated and purified enamel protein samples and EMD were measured on the computer monitor of histological results. The length of the regenerated cementum was straight distance between the apical end of the defect and coronal extention of the new cementum, as well as to the crest of the new alveolar bone. Also, the thickness of cementum was measured at coronal end, apical end and between them.
CR promoting activity of enamel proteins obtained at each extracted and purified step were examined by eight-week histological analysis of buccal dehiscence type bone defects created along the roots of canine mandible (FIG. 1).

Molecule	ALP activity of HPDL cells (human synthetic peptides, Example 3) ([1]; peptides around 1 ng/ml, TGF-β1 10 ng/ml)	induction of mineralization of HPDL cells (Example 3) [2]	ALP activity of HPDL cells (porcine sheath proteins and synthetic peptides) [1]	ALP activity of HPDL cells (porcine sheath proteins and synthetic peptides) ([1]; listed as 17 kDa ESP)	thickness of regenerated cementum [3] [μm]	CR (cementum regeneration) activity [3]	CR (cementum regeneration) activity ([3]; listed as 17 kDa ESP)	ALP activity of HPDL cells (porcine sheath proteins and synthetic peptides) ([1]; listed as 15-kDa sheath protein)
FADPQGPSLPGMDF (14 aa from 157 to 170 in sequence 11; listed as Homo sapiens) [H-3]	enhanced dose dependently	enhanced the induction of mineralization						
B1			enhanced	weaker than that of TGF-β1	31.77±3.78	induced a thick acellular cementum; also recorded: induced thick acellular cementum near the apical end of the defect, but the CR was scarce near the coronal end; also recorded: induced a smaller area of cementum regeneration; also recorded: exhibited the CR activity	stronger cementum regeneration promoting activity	
B2			not			do not exhibit any cementum regeneration activity		
B3			showed the increase of ALP inducing activity than that of 13 kDa sheath protein		8.13±2.06	scarce CR activity		not
